Columns and labels:
[1] = target: T1, extracellular domain cynomolgus monkey CD147-His (cynomolgus monkey); assay: ELISA, extracellular domain cynomolgus monkey CD147-His on the plate
T1 construct: Made in FreeStyle-293F cells, purified on His-Trap HP; also called monkey extracellular domain CD147-His; cynomolgus monkey CD147 extracellular domain antigen
T1 chain: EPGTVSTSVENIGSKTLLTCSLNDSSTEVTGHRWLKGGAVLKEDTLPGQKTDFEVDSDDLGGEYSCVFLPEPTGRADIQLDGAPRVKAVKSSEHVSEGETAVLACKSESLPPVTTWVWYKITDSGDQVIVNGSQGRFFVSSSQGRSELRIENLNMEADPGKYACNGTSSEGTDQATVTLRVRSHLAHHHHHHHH

[2] = target: T2, extracellular domain human CD147-His (human, UniProt P35613 140-323); assay: ELISA, extracellular domain human CD147-His on the plate
T2 construct: Made in FreeStyle-293F cells, purified on His-Trap HP; also called extracellular domain CD147-His; human CD147 extracellular domain antigen
T2 sequence: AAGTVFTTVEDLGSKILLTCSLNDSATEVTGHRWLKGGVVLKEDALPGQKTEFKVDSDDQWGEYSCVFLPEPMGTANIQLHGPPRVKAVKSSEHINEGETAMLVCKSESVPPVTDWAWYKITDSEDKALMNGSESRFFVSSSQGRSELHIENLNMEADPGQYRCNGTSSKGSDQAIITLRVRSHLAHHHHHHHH

B1: HAb18 (antibody, V domains shown)
VH: EVKLEESGGGLVQPGGSMKLSCVASGFTFSDAWMDWVRQSPEKGLEWVAEIRSKANNHAPYYTESVKGRFTISRDDSKSIIYLQMNNLRAEDTGIYYCTRDSTATHWGQGTLVTVSA
VL: SIVMTQTPTFLVVSAGDRVTITCKASQSVINDVAWYQQKPGQSPKLLIFYASNRNTGVPDRFTGSGYGTDFTFTISTVQAEDLAVYFCQQDYSPPFTFGSGTKLEIK
notes: also called HAb18G; target antibody HAb18
Question: Which results are given for B1?
Answer: binding result [1]: no binding; binding result [2]: binds

From patent publication WO2017061602A1 (dated 2017)
